Residue numbers refer to the chain shown, from its start.
B1: 650 (protein)
chain: LDNGLAHTPPMGWLHWERFMCNLDCQEEPDSCISEKLFMEMAERMVTEGWKDAGYEYLCIDDCWMAPQRDSEGRLQADPQRFPHGIRQLANHVHSKGLKLGIYADVGNKTCAGFPGSFGYYDIDAQTFADWGVDLLKFDGCYCDSLENLADGYKHMSLALNRTGRPIVYSCEWPLYMWPFQKPNYTEIRQYCNHWRNFADIDDSWASIKSILDWTSRNQERIVDVAGPGGWNDPDMLVIGNFGLSWDQQVTQMALWAIMAAPLFMSNDLRAISPQAKALLQDKDVIAINQDPLGKQGYQLRKGDNFEVWERPLSGDAWAVAIINRQEIGGPRSYTIPVASLGKGVACNPACFITQLLPVKRQLGFYNWTSRLKSHINPTGTVLLQLENTMQTSLKDLL
modifications: Synthetic Polypeptide sequence of Variant No. 650 of mature Human GLA
B2: 652 (protein)
chain: B1 chain with H7R, P10T, W246P, A261G, N305L
modifications: Synthetic Polypeptide sequence of Variant No. 652 of mature Human GLA
B3: 654 (protein)
chain: B1 chain with H7S, P10T
modifications: Synthetic Polypeptide sequence of Variant No. 654 of mature Human GLA
B4: 655 (protein)
chain: B1 chain with H7R, P10T, W246P, A261G, N305L, W368A
modifications: Synthetic Polypeptide sequence of Variant No. 655 of mature Human GLA
B5: 638 (protein)
chain: B1 chain with H7R, A261G
modifications: Synthetic Polypeptide sequence of Variant No. 638 of mature Human GLA
B6: 659 (protein)
chain: B1 chain with H7R, P10T, W64L
modifications: Synthetic Polypeptide sequence of Variant No. 659 of mature Human GLA
B7: 653 (protein)
chain: B1 chain with H7R, W246P
modifications: Synthetic Polypeptide sequence of Variant No. 653 of mature Human GLA
B8: 658 (protein)
chain: B1 chain with H7R, P10T, M39E, W246P
modifications: Synthetic Polypeptide sequence of Variant No. 658 of mature Human GLA
B9: 651 (protein)
chain: B1 chain with H7R
modifications: Synthetic Polypeptide sequence of Variant No. 651 of mature Human GLA
B10: 656 (protein)
chain: B1 chain with H7R, W246P, A261G
modifications: Synthetic Polypeptide sequence of Variant No. 656 of mature Human GLA
B11: 657 (protein)
chain: B1 chain with H7R, P10T, P67T, K182N
modifications: Synthetic Polypeptide sequence of Variant No. 657 of mature Human GLA

How the values were obtained:
Type in all cases: biochemical
[1] = HTP-analysis of yeast culture supernatants, no challenge (MUGal hydrolysis); details: activity of the variant/activity of Rd7BB (SEQ ID NO: 44)
Summary of the method: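 GLA variants expressed in yeast INVSc1, secreted into SD-Ura broth over 66-84 h at 30° C; clarified supernatants tested without challenge. Supernatant mixed with McIlvaine buffer pH 4.8 and 2 mM MUGal (citrate/KCl, pH 4.6), 37° C for 30-180 min, carbonate-quenched, fluorescence Ex 355/Em 448 nm.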

[2] = HTP-analysis of supernatants pretreated with acid (MUGal hydrolysis); details: activity of the variant/activity of Rd7BB (SEQ ID NO: 44); challenge at pH 3.5
Summary of the method: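 GLA variants were secreted from INVSc1 yeast grown 66-84 h at 30° C. in SD-Ura with 2% glucose; supernatants were mixed with McIlvaine buffer pH 3.3-4.3 and held at 37° C. for 1-3 h. Residual activity on MUGal at pH 4.8 was then measured by fluorescence.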

[3] = HTP-analysis of supernatants pretreated with base (MUGal hydrolysis); details: activity of the variant/activity of Rd7BB (SEQ ID NO: 44); challenge at pH 7.5
Summary of the method: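 GLA variants secreted from yeast INVSc1; culture supernatants pre-incubated with McIlvaine buffer pH 7.0–8.2 or 200 mM bicarbonate pH 9.1–9.7 at 37° C. for 1–18 h. Residual activity: MUGal (4 mM stock) hydrolysis at pH 4.3–4.8, 37° C., 30–180 min, carbonate quench; fluorescence Ex 355/Em 448 nm.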

Row | Molecule | Relative Activity of GLA Variants After No Challenge (NC) [1] | Relative Activity of GLA Variants After Challenge at pH 3.5 [2] | Relative Activity of GLA Variants After Challenge at pH 7.5 [3]
1 | B1 | + (>0.5 to 1.5 relative activity over Rd7BB (SEQ ID NO: 44)) | + (>0.5 to 1.5 relative activity over Rd7BB (SEQ ID NO: 44)) | + (>0.5 to 1.5 relative activity over Rd7BB (SEQ ID NO: 44))
2 | B2 | + (>0.5 to 1.5 relative activity over Rd7BB (SEQ ID NO: 44)) | + (>0.5 to 1.5 relative activity over Rd7BB (SEQ ID NO: 44)) | − (<0.5 relative activity to Rd7BB (SEQ ID NO: 44))
3 | B3 | + (>0.5 to 1.5 relative activity over Rd7BB (SEQ ID NO: 44)) | + (>0.5 to 1.5 relative activity over Rd7BB (SEQ ID NO: 44)) | + (>0.5 to 1.5 relative activity over Rd7BB (SEQ ID NO: 44))
4 | B4 | + (>0.5 to 1.5 relative activity over Rd7BB (SEQ ID NO: 44)) | − (<0.5 relative activity to Rd7BB (SEQ ID NO: 44)) | − (<0.5 relative activity to Rd7BB (SEQ ID NO: 44))
5 | B5 | − (<0.5 relative activity to Rd7BB (SEQ ID NO: 44)) | − (<0.5 relative activity to Rd7BB (SEQ ID NO: 44)) | − (<0.5 relative activity to Rd7BB (SEQ ID NO: 44))
6 | B6 | − (<0.5 relative activity to Rd7BB (SEQ ID NO: 44)) | − (<0.5 relative activity to Rd7BB (SEQ ID NO: 44)) | − (<0.5 relative activity to Rd7BB (SEQ ID NO: 44))
7 | B7 | + (>0.5 to 1.5 relative activity over Rd7BB (SEQ ID NO: 44)) | + (>0.5 to 1.5 relative activity over Rd7BB (SEQ ID NO: 44)) | + (>0.5 to 1.5 relative activity over Rd7BB (SEQ ID NO: 44))
8 | B8 | + (>0.5 to 1.5 relative activity over Rd7BB (SEQ ID NO: 44)) | + (>0.5 to 1.5 relative activity over Rd7BB (SEQ ID NO: 44)) | + (>0.5 to 1.5 relative activity over Rd7BB (SEQ ID NO: 44))
9 | B9 | + (>0.5 to 1.5 relative activity over Rd7BB (SEQ ID NO: 44)) | + (>0.5 to 1.5 relative activity over Rd7BB (SEQ ID NO: 44)) | + (>0.5 to 1.5 relative activity over Rd7BB (SEQ ID NO: 44))
10 | B10 | + (>0.5 to 1.5 relative activity over Rd7BB (SEQ ID NO: 44)) | + (>0.5 to 1.5 relative activity over Rd7BB (SEQ ID NO: 44)) | + (>0.5 to 1.5 relative activity over Rd7BB (SEQ ID NO: 44))
11 | B11 | + (>0.5 to 1.5 relative activity over Rd7BB (SEQ ID NO: 44)) | + (>0.5 to 1.5 relative activity over Rd7BB (SEQ ID NO: 44)) | + (>0.5 to 1.5 relative activity over Rd7BB (SEQ ID NO: 44))
